Test results taken from patent US20140271457A1 (AbbVie / Abbott, published 2014).
Residue numbers refer to the chain shown, from its start.

B1: DVD3108 (bispecific antibody, IgG1)
VH: EVQLVQSGAEVKKPGASVKVSCKASGYTFTTYGVSWVRQAPGQGLEWMGEIYPGNYNTYYNEKFRGRVTMTTDTSTSTAYMELRSLRSDDTAVYYCARWRTSYFSDYGYFDYWGQGTTVTVSSGGGGSGGGGSEVQLVQSGAEVKKPGASVKVSCKASGYTFANYGIIWVRQAPGQGLEWMGWINTYTGKPTYAQKFQGRVTMTTDTSTSTAYMELSSLRSEDTAVYYCARKLFTTMDVTDNAMDYWGQGTTVTVSS
VL: DVVMTQSPLSLPVTLGQPASISCRSSQSLVHSHGNTYLHWYQQRPGQSPRLLIYTVSNRFSGVPDRFSGSGSGTDFTLKISRVEAEDVGVYYCSQSTHVPYTFGGGTKVEIKRGGSGGGGSGDIQMTQSPSSLSASVGDRVTITCRASQDISQYLNWYQQKPGKAPKLLIYYTSRLQSGVPSRFSGSGSGTDFTLTISSLQPEDFATYFCQQGNTWPPTFGQGTKLEIKR
B2: DVD3118 (bispecific antibody, IgG1)
VH: B1 VH with A163N, T235N, M237V, D238A
VL: B1 VL with S152E, Q153N, W216Q
B3: DVD3104 (bispecific antibody, IgG1)
VH: EVQLVQSGAEVKKPGASVKVSCKASGYTFANYGIIWVRQAPGQGLEWMGWINTYTGKPTYAQKFQGRVTMTTDTSTSTAYMELSSLRSEDTAVYYCARKLFTTMDVTDNAMDYWGQGTTVTVSSASTKGPEVQLVESGGGLVQPGGSLRLSCAASGFTFSNYGVTWVRQAPGKGLEWVSMIWADGSTHYASSVKGRFTISRDNSKNTLYLQMNSLRAEDTAVYYCAREWQHGPVAYWGQGTLVTVSS
VL: DIQMTQSPSSLSASVGDRVTITCRASQDISQYLNWYQQKPGKAPKLLIYYTSRLQSGVPSRFSGSGSGTDFTLTISSLQPEDFATYFCQQGNTWPPTFGQGTKLEIKRTVAAPDIQMTQSPSSLSASVGDRVTITCRASQLVSSAVAWYQQKPGKAPKLLIYWASARHTGVPSRFSGSGSGTDFTLTISSLQPEDFATYYCQQHYKTPFTFGQGTKLEIKR
B4: DVD3117 (bispecific antibody, IgG1)
VH: EVQLVQSGAEVKKPGASVKVSCKASGYTFNNYGIIWVRQAPGQGLEWMGWINTYTGKPTYAQKFQGRVTMTTDTSTSTAYMELSSLRSEDTAVYYCARKLFNTVAVTDNAMDYWGQGTTVTVSSASTKGPSVFPLAPEVQLVESGGGLVQPGGSLRLSCAASGFTFSNYGVTWVRQAPGKGLEWVSMIWADGSTHYASSVKGRFTISRDNSKNTLYLQMNSLRAEDTAVYYCAREWQHGPVAYWGQGTLVTVSS
VL: B3 VL with S30E, Q31N, W94Q
B5: DVD3099 (bispecific antibody, IgG1)
VH: EVQLVQSGAEVKKPGASVKVSCKASGYTFTTYGVSWVRQAPGQGLEWMGEIYPGNYNTYYNEKFRGRVTMTTDTSTSTAYMELRSLRSDDTAVYYCARWRTSYFSDYGYFDYWGQGTTVTVSSASTKGPEVQLVESGGGLVQPGGSLRLSCAASGFTFSNYGVEWVRQAPGKGLEWVSGIWADGSTHYADTVKSRFTISRDNSKNTLYLQMNSLRAEDTAVYYCAREWQHGPVAYWGQGTLVTVSS
VL: DVVMTQSPLSLPVTLGQPASISCRSSQSLVHSHGNTYLHWYQQRPGQSPRLLIYTVSNRFSGVPDRFSGSGSGTDFTLKISRVEAEDVGVYYCSQSTHVPYTFGGGTKVEIKRTVAAPDIQMTQSPSSLSASVGDRVTITCKASQLVSSAVAWYQQKPGKAPKLLIYWASTLHTGVPSRFSGSGSGTDFTLTISSLQPEDFATYYCQQHYRTPFTFGQGTKLEIKR
B6: DVD3101 (bispecific antibody, IgG1)
VH: B5 VH
VL: DVVMTQSPLSLPVTLGQPASISCRSSQSLVHSHGNTYLHWYQQRPGQSPRLLIYTVSNRFSGVPDRFSGSGSGTDFTLKISRVEAEDVGVYYCSQSTHVPYTFGGGTKVEIKRTVAAPSVFIFPPDIQMTQSPSSLSASVGDRVTITCKASQLVSSAVAWYQQKPGKAPKLLIYWASTLHTGVPSRFSGSGSGTDFTLTISSLQPEDFATYYCQQHYRTPFTFGQGTKLEIKR
B7: DVD3102 (bispecific antibody, IgG1)
VH: EVQLVQSGAEVKKPGASVKVSCKASGYTFTTYGVSWVRQAPGQGLEWMGEIYPGNYNTYYNEKFRGRVTMTTDTSTSTAYMELRSLRSDDTAVYYCARWRTSYFSDYGYFDYWGQGTTVTVSSASTKGPSVFPLAPEVQLVESGGGLVQPGGSLRLSCAASGFTFSNYGVEWVRQAPGKGLEWVSGIWADGSTHYADTVKSRFTISRDNSKNTLYLQMNSLRAEDTAVYYCAREWQHGPVAYWGQGTLVTVSS
VL: B5 VL
B8: DVD3103 (bispecific antibody, IgG1)
VH: EVQLVQSGAEVKKPGASVKVSCKASGYTFANYGIIWVRQAPGQGLEWMGWINTYTGKPTYAQKFQGRVTMTTDTSTSTAYMELSSLRSEDTAVYYCARKLFTTMDVTDNAMDYWGQGTTVTVSSGGGGSGGGGSEVQLVESGGGLVQPGGSLRLSCAASGFTFSNYGVTWVRQAPGKGLEWVSMIWADGSTHYASSVKGRFTISRDNSKNTLYLQMNSLRAEDTAVYYCAREWQHGPVAYWGQGTLVTVSS
VL: DIQMTQSPSSLSASVGDRVTITCRASQDISQYLNWYQQKPGKAPKLLIYYTSRLQSGVPSRFSGSGSGTDFTLTISSLQPEDFATYFCQQGNTWPPTFGQGTKLEIKRGGSGGGGSGDIQMTQSPSSLSASVGDRVTITCRASQLVSSAVAWYQQKPGKAPKLLIYWASARHTGVPSRFSGSGSGTDFTLTISSLQPEDFATYYCQQHYKTPFTFGQGTKLEIKR
B9: DVD3109 (bispecific antibody, IgG1)
VH: EVQLVQSGAEVKKPGASVKVSCKASGYTFTTYGVSWVRQAPGQGLEWMGEIYPGNYNTYYNEKFRGRVTMTTDTSTSTAYMELRSLRSDDTAVYYCARWRTSYFSDYGYFDYWGQGTTVTVSSASTKGPEVQLVQSGAEVKKPGASVKVSCKASGYTFANYGIIWVRQAPGQGLEWMGWINTYTGKPTYAQKFQGRVTMTTDTSTSTAYMELSSLRSEDTAVYYCARKLFTTMDVTDNAMDYWGQGTTVTVSS
VL: DVVMTQSPLSLPVTLGQPASISCRSSQSLVHSHGNTYLHWYQQRPGQSPRLLIYTVSNRFSGVPDRFSGSGSGTDFTLKISRVEAEDVGVYYCSQSTHVPYTFGGGTKVEIKRTVAAPDIQMTQSPSSLSASVGDRVTITCRASQDISQYLNWYQQKPGKAPKLLIYYTSRLQSGVPSRFSGSGSGTDFTLTISSLQPEDFATYFCQQGNTWPPTFGQGTKLEIKR
B10: DVD3111 (bispecific antibody, IgG1)
VH: B9 VH
VL: DVVMTQSPLSLPVTLGQPASISCRSSQSLVHSHGNTYLHWYQQRPGQSPRLLIYTVSNRFSGVPDRFSGSGSGTDFTLKISRVEAEDVGVYYCSQSTHVPYTFGGGTKVEIKRTVAAPSVFIFPPDIQMTQSPSSLSASVGDRVTITCRASQDISQYLNWYQQKPGKAPKLLIYYTSRLQSGVPSRFSGSGSGTDFTLTISSLQPEDFATYFCQQGNTWPPTFGQGTKLEIKR
B11: DVD3121 (bispecific antibody, IgG1)
VH: B9 VH with A159N, T231N, M233V, D234A
VL: B10 VL with S155E, Q156N, W219Q
B12: DVD3119 (bispecific antibody, IgG1)
VH: B9 VH with A159N, T231N, M233V, D234A
VL: B9 VL with S148E, Q149N, W212Q
B13: DVD3112 (bispecific antibody, IgG1)
VH: EVQLVQSGAEVKKPGASVKVSCKASGYTFTTYGVSWVRQAPGQGLEWMGEIYPGNYNTYYNEKFRGRVTMTTDTSTSTAYMELRSLRSDDTAVYYCARWRTSYFSDYGYFDYWGQGTTVTVSSASTKGPSVFPLAPEVQLVQSGAEVKKPGASVKVSCKASGYTFANYGIIWVRQAPGQGLEWMGWINTYTGKPTYAQKFQGRVTMTTDTSTSTAYMELSSLRSEDTAVYYCARKLFTTMDVTDNAMDYWGQGTTVTVSS
VL: B9 VL

Target: Recombinant Human TNF-α/TNFSF1A (human, UniProt P01375 77-233)
Sequence (P01375 77-233 limits assumed): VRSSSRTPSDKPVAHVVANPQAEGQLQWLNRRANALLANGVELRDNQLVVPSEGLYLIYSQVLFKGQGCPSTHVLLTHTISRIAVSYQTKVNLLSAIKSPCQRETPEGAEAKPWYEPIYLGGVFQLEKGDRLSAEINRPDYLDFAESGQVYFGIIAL
Experiment: cell-based or functional assay

Row | Binder | C-Terminal VD huTNFα Neutralization Assay IC50 [nM] | N-Terminal VD huTNFα Neutralization Assay IC50 [nM]
1 | B1 | 0.183 | –
2 | B2 | 0.065 | –
3 | B3 | – | 0.033
4 | B4 | – | 1.96
5 | B5 | – | 0.003
6 | B6 | 0.308 | –
7 | B7 | 0.294 | –
8 | B8 | – | 0.016
9 | B9 | 0.731 | –
10 | B10 | 0.146 | –
11 | B11 | 0.036 | –
12 | B12 | 0.163 | –
13 | B13 | 0.387 | –
